Results: US20210388087A1 (Chugai, published 2021)
Where a chain is given by its changes, count along the chain named. Names and notes keep the numbering of the source. Where no end group is shown, it is not given here.

Experiments:
Human CD137 ECD = molecular target: T1, Human CD137 ECD (human); assay: SPR (Biacore), affinity of single-mutation variant against parental H183/L072
T1 construct: also called human CD137 extracellular domain; hCD137

human CD137 = human CD137 (human, UniProt Q07011 24-186); assay: SPR Biacore T200, IgG captured on protein A, 25 C;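 also: antigens diluted in ACES running buffer at pH 7.4 were flowed over antibodies held on a CM3 chip bearing amine-coupled protein A, with buffer alone serving as blank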
cyno CD137 = molecular target: T2, cyno CD137 (cynomolgus monkey, UniProt Q07011 24-186 (human entry), limits assumed); assay: SPR Biacore T200, IgG captured on protein A, 25 C;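 also: antigens diluted in ACES running buffer at pH 7.4 were flowed over antibodies held on a CM3 chip bearing amine-coupled protein A, with buffer alone serving as blank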
T2 construct: also called cynomolgus monkey CD137
T2 chain: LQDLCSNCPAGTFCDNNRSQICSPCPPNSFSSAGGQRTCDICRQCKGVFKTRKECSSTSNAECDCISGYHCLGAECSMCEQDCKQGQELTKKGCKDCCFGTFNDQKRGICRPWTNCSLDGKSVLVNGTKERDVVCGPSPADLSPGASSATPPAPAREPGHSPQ

human CD3 ed = human CD3 ed (human, UniProt P07766 23-126; P04234 22-105, limits assumed); assay: SPR Biacore T200, IgG captured on protein A, 25 C;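 also: antigens diluted in ACES running buffer at pH 7.4 were flowed over antibodies held on a CM3 chip bearing amine-coupled protein A, with buffer alone serving as blank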
[1] = molecular target: T3, biotin-labeled human CD137 fused to human IgG1 Fc fragment (human, biotin-labeled); assay: competitive ELISA on biotin-human CD137-Fc; free CD3e vs free Fc
T3 construct: also called human CD137-Fc; biotin-human CD137-Fc; not shown: human IgG1 Fc fragment

[2] = molecular target: T3, biotin-labeled human CD137 fused to …; assay: competitive ELISA on biotin-human CD137-Fc; free Fc 62.5 pmol (control)
[3] = molecular target: T3, biotin-labeled human CD137 fused to …; assay: competitive ELISA on biotin-human CD137-Fc; competitor free CD3e 62.5 pmol
Human CD3eg linker = molecular target: T4, Human CD3eg linker (human); assay: affinity relative to template H183/L072, single-mutation scan
T4 construct: Single chain: CD3 epsilon and gamma subunits joined by a 29-mer linker, Flag-tag at the C-terminus; also called recombinant human CD3
T4 chain: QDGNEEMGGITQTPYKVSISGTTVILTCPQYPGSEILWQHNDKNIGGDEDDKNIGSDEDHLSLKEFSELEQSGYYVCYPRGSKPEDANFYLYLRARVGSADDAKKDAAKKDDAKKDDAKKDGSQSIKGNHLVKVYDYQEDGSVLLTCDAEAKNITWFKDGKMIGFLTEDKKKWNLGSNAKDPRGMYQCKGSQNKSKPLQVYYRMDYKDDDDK

human CD137-Fc [4] = molecular target: T5, human CD137-Fc (human, biotin-labeled); assay: bead ELISA, IgG on biotinylated antigen, luminescence;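 also: biotinylated antigen captured on streptavidin magnetic beads, then incubated with purified IgG at 50 ng/µL for 1 h at room temperature before detection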
T5 construct: if 90 already holds the Fc, drop the second piece; also called biotin-labeled human CD137 fused to human IgG1 Fc fragment; biotin-human CD137-Fc; not shown: human IgG1 Fc fragment

cyno CD137-Fc = molecular target: T6, cyno CD137-Fc (cynomolgus monkey; human, limits assumed, biotin-labeled); assay: as above
T6 construct: whole entry 92 named; also called biotin-labeled cynomolgus monkey CD137 fused to human IgG1 Fc fragment; not shown: human IgG1 Fc fragment
T6 chain: T2 chain

human CD137-Fc [5] = molecular target: T5, human CD137-Fc; assay: bead ELISA on biotin-human CD137-Fc, 0 pmol free CD3e peptide
[6] = molecular target: T7, Biotin-labeled CD3 epsilon peptide antigen (human, also: biotin-labeled, site not given here); assay: bead ELISA, IgG on biotinylated CD3 epsilon peptide, luminescence
T7 construct: also called CD3 peptide
T7 peptide: QDGNEEMGGITQTPY

human CD137-Fc [7] = molecular target: T5, human CD137-Fc; assay: bead ELISA on biotin-human CD137-Fc, 125 vs 0 pmol free CD3e peptide;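 also: target captured on streptavidin-coated magnetic beads, signal read as fluorescence 2 min after adding APS-5 substrate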
human CD137-Fc [8] = molecular target: T5, human CD137-Fc; assay: bead ELISA on biotin-human CD137-Fc with 125 pmol/well free CD3e peptide as competitor;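 also: Streptavidin-coated magnetic beads in blocking buffer as the capture surface, well signal read as fluorescence 2 min after adding APS-5 substrate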

B1: Dual-Fab H183/L072 variant with single light chain mutation P56Y (Kabat) (antibody, name in Kabat numbering, V domains shown)
VH: QVQLVESGGGLVQPGRSLRLSCAASGFTFSNAWMHWVRQAPGKGLEWVAQIKDKGNAYAAYYAPSVKGRFTISRDDSKNSIYLQMNSLKTEDTAVYYCHYVHYASASTVLPAFGVDAWGQGTTVTVSS
VL: DIVMTQSPLSLPVTPGEPASISCQASQELVHMNRNTYLHWYQQKPGQAPRLLIYKVSNRFYGVPDRFSGSGSGTDFTLKISRVEAEDVGVYYCAQGTSVPFTFGQGTKLEIK
notes: expressed as an antibody in Expi293 and purified on Protein A; also called dBBDu183H / dBBDu072L P56Y
fold change of affinity for CD137 (Human CD137 ECD): 0 fold

B2: dBBDu186/L098 (antibody, V domains shown)
VH: B1 VH with K54R, G55S, A57Q, A60T, S105Q
VL: B1 VL with Q24A, Q27E, M32I, N35Y, T36I, Y37F, Y61I, T97S, S98Q
notes: IgG format; constant regions not specified
Kd (human CD137): 2.31 µM | koff (human CD137): 0.000534 s⁻¹ | kon (human CD137): 231 M⁻¹ s⁻¹ | Kd (cyno CD137): 134 µM | koff (cyno CD137): 0.00119 s⁻¹ | Kd (human CD3 ed): 1.88 µM | koff (human CD3 ed): 0.0209 s⁻¹ | kon (human CD3 ed): 11100 M⁻¹ s⁻¹ | Signal decrease [1]: 86.2% | ELISA signal [2]: 115000 | ELISA signal [3]: 15900

B3: H183/L072 with F55Y (Kabat) in VL dBBDu072L (antibody, name in Kabat numbering, V domains shown)
VH: B1 VH
VL: B1 VL with F60Y, Y61P
notes: Single-mutation variant of H183L072
fold change of affinity for CD3 (Human CD3eg linker): 10.6 fold

B4: H183/L072 with R54Y (Kabat) in VL dBBDu072L (antibody, name in Kabat numbering, V domains shown)
VH: B1 VH
VL: B1 VL with R59Y, Y61P
notes: as for B3
fold change of affinity for CD3 (Human CD3eg linker): 1.6 fold

B5: dBBDu186/L100 (antibody, V domains shown)
VH: B1 VH with K54R, G55S, A57Q, A60T, S105Q
VL: B1 VL with Q24S, Q27E, M32I, N35Y, T36I, Y37F, S57Y, Y61M, A94G, T97S
notes: as for B2
Kd (human CD137): 1.91 µM | koff (human CD137): 0.000746 s⁻¹ | kon (human CD137): 391 M⁻¹ s⁻¹ | Kd (cyno CD137): 70.4 µM | koff (cyno CD137): 0.00208 s⁻¹ | Kd (human CD3 ed): 3.36 µM | koff (human CD3 ed): 0.0546 s⁻¹ | kon (human CD3 ed): 16200 M⁻¹ s⁻¹ | Signal decrease [1]: 13% | ELISA signal [2]: 102000 | ELISA signal [3]: 88900

B6: H183/L072 with A89Y (Kabat) in VL dBBDu072L (antibody, name in Kabat numbering, V domains shown)
VH: B1 VH
VL: B1 VL with Y61P, A94Y
notes: as for B3
fold change of affinity for CD3 (Human CD3eg linker): 0.5 fold

B7: Dual-Fab H183/L072 variant with single light chain mutation Q90Y (Kabat) (antibody, name in Kabat numbering, V domains shown)
VH: B1 VH
VL: B1 VL with Y61P, Q95Y
notes: expressed as an antibody in Expi293 and purified on Protein A; also called dBBDu183H / dBBDu072L Q90Y
fold change of affinity for CD137 (Human CD137 ECD): 0 fold

B8: Dual-Fab H183/L072 variant with single light chain mutation V51Y (Kabat) (antibody, name in Kabat numbering, V domains shown)
VH: B1 VH
VL: B1 VL with V56Y, Y61P
notes: expressed as an antibody in Expi293 and purified on Protein A; also called dBBDu183H / dBBDu072L V51Y
fold change of affinity for CD137 (Human CD137 ECD): 0.2 fold

B9: H183/L072 with S52Y (Kabat) in VL dBBDu072L (antibody, name in Kabat numbering, V domains shown)
VH: B1 VH
VL: B1 VL with S57Y, Y61P
notes: as for B3
fold change of affinity for CD3 (Human CD3eg linker): 1.5 fold

B10: H183/L072 with N53Y (Kabat) in VL dBBDu072L (antibody, name in Kabat numbering, V domains shown)
VH: B1 VH
VL: B1 VL with N58Y, Y61P
notes: as for B3
fold change of affinity for CD3 (Human CD3eg linker): 0.7 fold

B11: H183/L072 with V94Y (Kabat) in VL dBBDu072L (antibody, name in Kabat numbering, V domains shown)
VH: B1 VH
VL: B1 VL with Y61P, V99Y
notes: as for B3
fold change of affinity for CD3 (Human CD3eg linker): 0.2 fold

B12: Dual-Fab H183/L072 variant with single light chain mutation V94Y (Kabat) (antibody, name in Kabat numbering, V domains shown)
VH: B1 VH
VL: B1 VL with Y61P, V99Y
notes: expressed as an antibody in Expi293 and purified on Protein A; also called dBBDu183H / dBBDu072L V94Y
fold change of affinity for CD137 (Human CD137 ECD): 0.1 fold

B13: H183/L072 with S93Y (Kabat) in VL dBBDu072L (antibody, name in Kabat numbering, V domains shown)
VH: B1 VH
VL: B1 VL with Y61P, S98Y
notes: as for B3
fold change of affinity for CD3 (Human CD3eg linker): 0.7 fold

B14: Dual-Fab H183/L072 variant with single light chain mutation T97Y (Kabat) (antibody, name in Kabat numbering, V domains shown)
VH: B1 VH
VL: B1 VL with Y61P, T102Y
notes: expressed as an antibody in Expi293 and purified on Protein A; also called dBBDu183H / dBBDu072L T97Y
fold change of affinity for CD137 (Human CD137 ECD): 0.3 fold

B15: DXDU01_3#072 (antibody, V domains shown)
VH: B1 VH with K54R, G55S, N56Q, A57L, P111G, F113Y
VL: B1 VL with Q24R, A25S, E28S, M32S, Y61S, A94G, S98Q, F101Y
notes: Human IgG1; light chain GLS3000 (kappa); also called dBBDu122
RLU (human CD137-Fc [4]): 14100 RLU | S/N ratio (human CD137-Fc/Fc) (human CD137-Fc [4]): 6.58 | RLU (cyno CD137-Fc): 3350 RLU | S/N ratio (cyno CD137-Fc/Fc) (cyno CD137-Fc): 1.56 | ELISA signal (human CD137-Fc [5]): 2700 | RLU [6]: 177000 RLU | S/N ratio (CD3 peptide/non coating) [6]: 148 | Signal decrease (human CD137-Fc [7]): 30.2% | ELISA signal (human CD137-Fc [8]): 1880

B16: Dual-Fab H183/L072 variant with single light chain mutation S93Y (Kabat) (antibody, name in Kabat numbering, V domains shown)
VH: B1 VH
VL: B1 VL with Y61P, S98Y
notes: expressed as an antibody in Expi293 and purified on Protein A; also called dBBDu183H / dBBDu072L S93Y
fold change of affinity for CD137 (Human CD137 ECD): 0.8 fold

B17: Dual-Fab H183/L072 variant with single light chain mutation R54Y (Kabat) (antibody, name in Kabat numbering, V domains shown)
VH: B1 VH
VL: B1 VL with R59Y, Y61P
notes: expressed as an antibody in Expi293 and purified on Protein A; also called dBBDu183H / dBBDu072L R54Y
fold change of affinity for CD137 (Human CD137 ECD): 0.2 fold

B18: Dual-Fab H183/L072 variant with single light chain mutation P95Y (Kabat) (antibody, name in Kabat numbering, V domains shown)
VH: B1 VH
VL: B1 VL with Y61P, P100Y
notes: expressed as an antibody in Expi293 and purified on Protein A; also called dBBDu183H / dBBDu072L P95Y
fold change of affinity for CD137 (Human CD137 ECD): 0 fold

B19: H183/L072 with T97Y (Kabat) in VL dBBDu072L (antibody, name in Kabat numbering, V domains shown)
VH: B1 VH
VL: B1 VL with Y61P, T102Y
notes: as for B3
fold change of affinity for CD3 (Human CD3eg linker): 0.2 fold

B20: dBBDu167/L094 (antibody, V domains shown)
VH: B1 VH with A57L, S107G, T108G, V109G, A112G
VL: B1 VL with Q24Y, Q27E, V30L, M32I, N35H, T36I, S57Y, Y61N, T97S
notes: IgG format; constant regions not specified; also called dBBDu_167 dBBDu.L094
Kd (human CD137): 8.43 µM | koff (human CD137): 0.0102 s⁻¹ | kon (human CD137): 1210 M⁻¹ s⁻¹ | Kd (cyno CD137): 6.92 µM | koff (cyno CD137): 0.0748 s⁻¹ | kon (cyno CD137): 10800 M⁻¹ s⁻¹ | Kd (human CD3 ed): 0.349 µM | koff (human CD3 ed): 0.021 s⁻¹ | kon (human CD3 ed): 60200 M⁻¹ s⁻¹ | Signal decrease [1]: 96.9% | ELISA signal [2]: 141000 | ELISA signal [3]: 4370

B21: H183/L072 with F96Y (Kabat) in VL dBBDu072L (antibody, name in Kabat numbering, V domains shown)
VH: B1 VH
VL: B1 VL with Y61P, F101Y
notes: as for B3
fold change of affinity for CD3 (Human CD3eg linker): 0.4 fold

B22: Dual-Fab H183/L072 variant with single light chain mutation T92Y (Kabat) (antibody, name in Kabat numbering, V domains shown)
VH: B1 VH
VL: B1 VL with Y61P, T97Y
notes: expressed as an antibody in Expi293 and purified on Protein A; also called dBBDu183H / dBBDu072L T92Y
fold change of affinity for CD137 (Human CD137 ECD): 0 fold

B23: Dual-Fab H183/L072 variant with single light chain mutation S52Y (Kabat) (antibody, name in Kabat numbering, V domains shown)
VH: B1 VH
VL: B1 VL with S57Y, Y61P
notes: expressed as an antibody in Expi293 and purified on Protein A; also called dBBDu183H / dBBDu072L S52Y
fold change of affinity for CD137 (Human CD137 ECD): 1.2 fold

B24: H183/L072 with P56Y (Kabat) in VL dBBDu072L (antibody, name in Kabat numbering, V domains shown)
VH: B1 VH
VL: B1 VL
notes: as for B3
fold change of affinity for CD3 (Human CD3eg linker): 2.7 fold
